Values joined by “and” are separate entries in the source; they are usually repeats but may differ in a detail not shown here. Equal values may be shown once. Each block holds one binder with its values, some of them ahead of it. Square brackets hold non-standard residues; d marks the D form. Ends that are not written are not given here. dMet(O) = CS(=O)CC[C@@H](N)C(=O)O
Legend:
[1] = molecular target: Ac-VQIINK-NH2 (SEQ ID NO: 23) (N-terminal acetyl (Ac); C-terminal amide (NH2)); assay: cell-based or functional assay
[2] = molecular target: Tau40 P301L protein (human); assay: cell-based or functional assay

Binder: [dK][dV][dR][dW][dW][dW][dR][dL] [kvrwwwrl]
- VQIINK Inhibition IC50 [1]: 15.2 µm

Binder: [dL][dK][dL][dK][dI][dK][dH][dF] [lklkikhf]
- IC50, Tau40 assay (ThT) [2]: 2.75 µM

Binder: [dL][dK][dV][dR][dW][dW] [lkvrww]
- VQIINK Inhibition IC50 [1]: 6.63 µm

Binder: [dR][dL][dK][dI][dR][dW] [rlkirw]
- VQIINK Inhibition IC50 [1]: 10.9 µm

Binder: [dE][dR][dL][dK][dV][dR][dW][dW] [erlkvrww]
- VQIINK Inhibition IC50 [1]: 20.4 µm

Binder: [dA][dR][dL][dR][dI][dH][dW] [arlrihw]
- VQIINK Inhibition IC50 [1]: 6.61 µm

Binder: [dL][dK][dR][dR][dI][dH][dY][dH] [lkrrihyh]
- VQIINK Inhibition IC50 [1]: 31.8 µm

Binder: [dR][dR][dL][dR][dI][dH][dW] [rrlrihw]
- VQIINK Inhibition IC50 [1]: 12.1 µm

Binder: [dM][dR][dL][dK][dV][dR][dW] [mrlkvrw]
- VQIINK Inhibition IC50 [1]: 5.67 µm

Binder: [dR][dT][dL][dK][dI][dV][dW][dR] [rtlkivwr]
- VQIINK Inhibition IC50 [1]: 5.65 µm

Binder: [dL][dK][dI][dR][dI][dE][dY][dH] [lkirieyh]
- VQIINK Inhibition IC50 [1]: 7.95 µm

Binder: [dK][dL][dK][dW][dL][dW] [klkwlw]
- VQIINK Inhibition IC50 [1]: 6.93 µm

Binder: [dR][dI][dK][dI][dR][dW] [rikirw]
- VQIINK Inhibition IC50 [1]: 10.8 µm

Binder: [dW][dD][dL][dK][dV][dR][dW] [wdlkvrw]
- IC50, Tau40 assay (ThT) [2]: 2.76 µM

Binder: [dL][dK][dI][dR][dI][dH][dA][dH] [lkirihah]
- VQIINK Inhibition IC50 [1]: 5.54 µm

Binder: [dT][dR][dL][dR][dI][dH][dW] [trlrihw]
- IC50, Tau40 assay (ThT) [2]: 2.7 µM

Binder: [dE][dR][dL][dR][dI][dH][dW] [erlrihw]
- VQIINK Inhibition IC50 [1]: 13.6 µm

Binder: [dL][dK][dI][dR][dI][dH][dR][dH] [lkirihrh]
- VQIINK Inhibition IC50 [1]: 7.35 µm

Binder: [dK][dL][dK][dI][dV][dW] [klkivw]
- VQIINK Inhibition IC50 [1]: 6.95 µm

Binder: [dE][dL][dK][dI][dV][dW] [elkivw]
- VQIINK Inhibition IC50 [1]: 6.85 µm

Binder: [dW][dR][dA][dR][dI][dH][dW] [wrarihw]
- VQIINK Inhibition IC50 [1]: 19.1 µm

Binder: [dW][dK][dL][dV][dV][dW] [wklvvw]
- IC50, Tau40 assay (ThT) [2]: 2.81 µM

Binder: [dI][dR][dI][dH][dY][dH][dL][dK] [irihyhlk]
- VQIINK Inhibition IC50 [1]: 8.69 µm

Binder: [dW][dR][dE][dK][dV][dR][dW][dW] [wrekvrww]
- VQIINK Inhibition IC50 [1]: 7.34 µm

Binder: [dL][dK][dI][dMet(O)][dI][dH][dY] [lkixihy]
- IC50, Tau40 assay (ThT) [2]: 2.81 µM

Binder: [dW][dF][dL][dR][dI][dH][dW] [wflrihw]
- VQIINK Inhibition IC50 [1]: 8.18 µm

Binder: [dW][dR][dL][dA][dI][dH][dW] [wrlaihw]
- VQIINK Inhibition IC50 [1]: 6.49 µm

Binder: [dL][dK][dI][dR][dI][dH][dY] [lkirihy]
- VQIINK Inhibition IC50 [1]: 17.6 µm

Binder: [dL][dK][dI][dR][dR][dH][dY][dH] [lkirrhyh]
- VQIINK Inhibition IC50 [1]: 10.5 µm

Binder: [dL][dK][dA][dR][dI][dH][dY][dH] [lkarihyh]
- VQIINK Inhibition IC50 [1]: 10 µm

Binder: [dF][dK][dI][dR][dI][dH][dY][dH] [fkirihyh]
- IC50, Tau40 assay (ThT) [2]: 2.76 µM

Binder: [dR][dK][dI][dR][dI][dH][dY][dH] [rkirihyh]
- VQIINK Inhibition IC50 [1]: 5.59 µm

Binder: [dV][dR][dW][dW][dW][dR][dL][dK] [vrwwwrlk]
- VQIINK Inhibition IC50 [1]: 9.47 µm

Binder: [dW][dE][dL][dK][dV][dE][dW] [welkvew]
- VQIINK Inhibition IC50 [1]: 11 µm

Binder: [dA][dK][dI][dR][dI][dH][dY][dH] [akirihyh]
- VQIINK Inhibition IC50 [1]: 8.93 µm

Binder: [dW][dR][dL][dK][dH][dR][dW] [wrlkhrw]
- VQIINK Inhibition IC50 [1]: 13.5 µm

Binder: [dL][dE][dL][dK][dI][dK][dF][dW] [lelkikfw]
- IC50, Tau40 assay (ThT) [2]: 2.73 µM and 2.85 µM

Binder: [dK][dI][dR][dI][dH][dY][dH][dL] [kirihyhl]
- VQIINK Inhibition IC50 [1]: 7.25 µm

Binder: [dW][dH][dV][dK][dF][dE][dL][dF] [whvkfelf]
- IC50, Tau40 assay (ThT) [2]: 2.88 µM

Further lines, results first:

- IC50, Tau40 assay (ThT) [2]: 2.7 µM
Binder: [dW][dR][dL][dK][dV][dD][dW] [wrlkvdw]

- VQIINK Inhibition IC50 [1]: 20.5 µm
Binder: [dW][dR][dL][dK][dV][dR][dA] [wrlkvra]

- VQIINK Inhibition IC50 [1]: 14.5 µm
Binder: [dW][dR][dL][dR][dI][dH][dE] [wrlrihe]

- VQIINK Inhibition IC50 [1]: 5.77 µm
Binder: [dW][dR][dL][dK][dV][dR][dE][dW] [wrlkvrew]

- IC50, Tau40 assay (ThT) [2]: 2.76 µM
Binder: [dW][dR][dL][dT][dI][dH][dW] [wrltihw]

- VQIINK Inhibition IC50 [1]: 8.93 µm
Binder: [dW][dR][dL][dR][dM][dH][dW] [wrlrmhw]

- VQIINK Inhibition IC50 [1]: 8.61 µm
Binder: [dW][dR][dL][dK][dT][dR][dW] [wrlktrw]

- IC50, Tau40 assay (ThT) [2]: 2.79 µM
Binder: [dW][dR][dL][dR][dI][dF][dW] [wrlrifw, listing 1 of 2 here]

- VQIINK Inhibition IC50 [1]: 6.43 µm
Binder: [dW][dR][dR][dK][dV][dR][dW][dW] [wrrkvrww]

- VQIINK Inhibition IC50 [1]: 9.75 µm
Binder: [dW][dR][dL][dR][dI][dH][dA] [wrlriha]

- VQIINK Inhibition IC50 [1]: 6.58 µm
Binder: [dW][dR][dL][dM][dI][dH][dW] [wrlmihw]

- VQIINK Inhibition IC50 [1]: 7.04 µm
Binder: [dW][dR][dL][dK][dV][dR][dR][dW] [wrlkvrrw]

- VQIINK Inhibition IC50 [1]: 7.32 µm
Binder: [dW][dR][dL][dR][dI][dH][dT] [wrlriht]

- VQIINK Inhibition IC50 [1]: 6.33 µm
Binder: [dW][dR][dL][dR][dI][dF][dW] [wrlrifw, listing 2 of 2 here]

- VQIINK Inhibition IC50 [1]: 11.7 µm
Binder: [dW][dR][dM][dR][dI][dH][dW] [wrmrihw]

- VQIINK Inhibition IC50 [1]: 7.39 µm
Binder: [dW][dR][dL][dR][dI][dH][dM] [wrlrihm]

- VQIINK Inhibition IC50 [1]: 13.1 µm
Binder: [dW][dR][dT][dK][dT][dR][dW] [wrtktrw]
